Experimental data: the supplement of paper PMC9170038

system: K4 kissing-loop RNA reporter; assay: apparent KD of K4 kissing-loop reporter; higher = weaker reporter binding; settings: Eterna round: R107; input ligand: theophylline 20 uM
Protocol: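 RNA-MaP round R107: designed RNA switches with theophylline, tryptophan, arginine or FMN aptamers are transcribed on-chip within common flanks. They are titrated with a labelled K4 kissing-loop RNA reporter in RNA-MaP buffer (100 mM Tris pH 7.5, 80 mM KCl, 4 mM MgCl2), without ligand or with the indicated ligand. Median apparent KD per design.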
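Further: bound reporter read as fluorescence of individual clusters on recovered sequencing chips by microscopy, with normalized cluster intensities fitted with a binding model.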

Going from “CCGAUGGGUACAGGAUAUGCCAGUGAUGUUGGUUUAGAUGGACCCAGAAGGAGACACCAGACGGAGGCAGAAGGGUAGCAAGGGA [Raarriis]” to “GCAGUGAUGUUGCGCGGGUACGGUAGAGUACGAGGACCGGUACGGCCGCCACUCGUACGGAACUGGCUAAUUUAUGGAAUGGUGA [IV]”, the “apparent KD of K4 kissing-loop reporter” value rises from 0.1 µM to 0.35 µM (3.5-fold).

“UGUUUUUACUGAAGGAGCGGCAAUUGAUACGUAGAUAUAGUGAUGUUAUAUAAGAUAGAGAGCCAGGUAGGUCGCAGAGUGUUUC [ExArgB.aA]” and “AAUAAAAUCACGGCCGCCACUGAUGCUAAUAUUAGCAGUGAUGUUGCUAUGUAGAUUUUAUUUAACAGGACCGGGUGAAUAUUUA [JR_SSTryptoB_Sub025]” are within 1.5-fold of each other in “apparent KD of K4 kissing-loop reporter” value: 0.194 µM for the first, 0.17 µM for the second.

Going from “UAACUUGCAGUGAUGUUGCAAGAACUGGAUACCAGCAUGGAAACAUGCCCUUGGCAGCCAGAAGCUGGCUGAACAUCACGUCAGU [Design5]” to “UUAAUAAUUCAAGGAUAUGUUUUCUAUUUCGAGUGAUGUUCGGUAUUAAUAAAUUUAAUAGAUUAUACAGAAGGUGAUGGAUAGU [Cynwulf-mod#5]”, the “apparent KD of K4 kissing-loop reporter” value falls from 0.159 µM to 0.0991 µM (1.6-fold).

First: AAGUCAUAUAGAAGGAGCGUGUUUUAUAAUUUAUUUUCAUGAUCGAGUGAUGUUCGAUAUACACAGGUAGGUCGCUGUAUAAUAA [hbob_SS_Arginine_B_2t140]
Second: CUACAUGCACAGGAGUGAUGUUUAUGGGCUCGAGGACCGGUACGGCCGCCACUCGUUAUGGCACGCAGUAGAUAUAGGCGAGGAA [theeternabot_sameState_KL_Trp_A_41]
The “apparent KD of K4 kissing-loop reporter” value of the first is 3.4-fold lower: 0.133 µM for the first, 0.448 µM for the second.

“AGUGUGCAAAAGCACACUCAGCACAAGGACAAGGAUAUCUACUAAUAGAGAAGGUGUCCUUUCCUUAGUGAUGUUAAGGAGCUGA [Omei KL FMN A SS D v1]” and “UGUACCGAGUCAGGAUAUGGCGUCGAAAGACGAAUGCUAGUGAUGUUAGGGAUCUGCGAAAGCAGUCUAGAAGGGACUUGGUACU [FmnBS 26 G36+U68]” are within 1.5-fold of each other in “apparent KD of K4 kissing-loop reporter” value: 0.624 µM for the first, 0.483 µM for the second.

First: GAUCUGAACGAAAGUUCGGAUCAGUCCGAUACCAGUAUGGAUUCAUACCCUUGGCAGCGGAAAUCUGCUAUGGAGUGAUGUUCCA [Theophylline A K4 14]
Second: AAGGGCUAGGCGGCCGCCACUGGUCGUGUACACAUACAGACCAGUGAUGUUGGUAUUGUAUGCGACAGGACCGGGCCUAGCCCAA [Exclusion - Tryptophan B (Freestyle 29)]
The “apparent KD of K4 kissing-loop reporter” value of the first is 1.7-fold higher: 0.418 µM for the first, 0.247 µM for the second.

Compared with “AGACUACUGACAGGAUAUAACAUACUAGCUCGUAUACCAAAGGUAUACGAGCACCUUCUAGUGAUGUUAGAAGGGUCGGUAGUCA [Omei KL FMN B Exc B v2]”, “CCGAUACAUUAUUCUACGGCCGAGAGCGAUACCAGCCAAAUUUAUGGCCCUUGGCAGCGCAGAUGCAGUGAUGUUGCAUACAUAC [Same State Theophylline A GF 18]” is 1.9-fold lower in “apparent KD of K4 kissing-loop reporter” value: 0.31 µM for the first, 0.166 µM for the second.

“AAGCGUGUGGCGGCCGCCACUAGUCUCCAGUGAUGUUGGAGAUAUCACGUAAGUGAUAUCCGACAUAGGACCGGGCCAUAUGGAA [Same State - Tryptophan B (Freestyle 22)]” and “CCAUCGCUAUUCGAUACCAGUCAGGAGGUCUUUGGCCUCCUAUUGGAGUGAUGUUCCAUAGACCCUUGGCAGCGAAUAGUGAUGG [Theophylline B K4 15]” are within 1.5-fold of each other in “apparent KD of K4 kissing-loop reporter” value: 0.612 µM for the first, 0.613 µM for the second.

“GGAUAGGAUAGAGGAUAUGGUUUAUGCAGAAAUAACUUAUUGUGUAAAUCCAUAGGGAGUGAUGUUCCAGAAGGCUGUCCUAUCG [MatMod 15 - Jieux - Exclusion - FMN B]” and “CUUUUACAGUCGGCCGCCACUGACAGCACUUCAAAGACAGUAUAAGGGUAGUGAUGUUACUUUAUCAGGACCGGGACUACCUAAC [theeternabot_sameState_KL_Trp_B_3]” are within 1.5-fold of each other in “apparent KD of K4 kissing-loop reporter” value: 0.241 µM for the first, 0.279 µM for the second.

Compared with “GUACGCUCUCGAGUGAUGUUCGAUAAUCGCGAGGAUAUCGCUUUUGCGAGAAGGCGCGGAAUGAGGAAACUCGUUCUGAGUGUAC [FMN A 24]”, “UUAUAUAAGGGAAGGAGCGCGUGGGCGCAGUGAUGUUGCGCCCGACAUCACUUCAACUUAACGCAGGUAGGUCGCCCUUUUAAUA [Arginine B (Excl) V4]” is 3.3-fold lower in “apparent KD of K4 kissing-loop reporter” value: 0.673 µM for the first, 0.206 µM for the second.

“CUCGAGUGAUGUUCGAUUAUGUAUACAGAUACCAGUGAAUUUUAACACCCUUGGCAGCUGGUAGAAUCAUUGUAAUUUUAACUAG [JR_ExcTheophyA_Sub001]” and “GCAGUGAUGUUGCGCGAGUACGGUAGAGUACGAGGACCGGUACGGCCGCCACUCGUACGGAACUGGCUAAUUUAUGGAAUGGUGA [III]” are within 1.5-fold of each other in “apparent KD of K4 kissing-loop reporter” value: 0.254 µM for the first, 0.27 µM for the second.

First: AGUGAAGUUAGUGAUGUGUGAGUUUGGGAAGGAGCGCCGAGGAAGGCAGGUAGGUCGCCCAGUGAUGUUGGUGUAAGGAUGAGAG [whbob_Ex_Arginine_A_2t123]
Second: GAACGAGUGAUGUUCGUUGGCAUGCAUUCCGAGGAUAUGGGAUUAGCCAGAAGGCGGAAUCAGUCUUCGAGUGAUGUUCGAAGAU [Same State FMN A GF 12]
The “apparent KD of K4 kissing-loop reporter” value of the first is 2.5-fold higher: 0.262 µM for the first, 0.104 µM for the second.

“UGUCUUUUUUUGAUGUUUUUUGUAUAAUGGCAGGAUAUCGUAGAGGCGAGAAGGGCUUUUAUGCGUUAUGAGUGAUGUUUGUAGG [vevvmullin]” and “AGACUACCACACUGUCAAUAGACAGUGAACUAGGAUAUGCUGAUAAGCAGAAGGAGUGAUGUUCCGAGGUAGUCAAUAAAAUAAU [FmnAX 13 G66]” are within 1.5-fold of each other in “apparent KD of K4 kissing-loop reporter” value: 0.295 µM for the first, 0.334 µM for the second.
